{"source": "patent US20150218277A1", "key": {"[1]": {"molecular_target": "HSP90 endogenous to CHO cells (Hamster), P46633", "sequence (P46633 whole entry)": "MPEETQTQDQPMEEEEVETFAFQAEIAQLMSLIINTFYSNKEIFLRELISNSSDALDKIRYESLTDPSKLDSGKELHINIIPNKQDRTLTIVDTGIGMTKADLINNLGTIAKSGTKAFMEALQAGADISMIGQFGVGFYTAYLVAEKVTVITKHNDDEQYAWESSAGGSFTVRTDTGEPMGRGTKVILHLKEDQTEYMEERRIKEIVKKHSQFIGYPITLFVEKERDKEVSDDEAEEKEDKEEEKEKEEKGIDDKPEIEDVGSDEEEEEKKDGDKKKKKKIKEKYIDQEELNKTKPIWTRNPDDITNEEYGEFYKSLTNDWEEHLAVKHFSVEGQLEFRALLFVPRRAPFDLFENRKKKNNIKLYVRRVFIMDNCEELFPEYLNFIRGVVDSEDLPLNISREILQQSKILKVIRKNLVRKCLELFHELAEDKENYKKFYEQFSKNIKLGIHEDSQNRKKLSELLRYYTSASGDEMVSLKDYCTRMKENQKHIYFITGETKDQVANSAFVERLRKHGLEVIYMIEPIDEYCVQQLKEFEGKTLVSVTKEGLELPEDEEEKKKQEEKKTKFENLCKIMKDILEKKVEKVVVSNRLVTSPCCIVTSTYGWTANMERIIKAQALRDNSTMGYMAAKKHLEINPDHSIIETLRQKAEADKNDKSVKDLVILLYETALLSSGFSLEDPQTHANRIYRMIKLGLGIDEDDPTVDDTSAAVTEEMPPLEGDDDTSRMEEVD", "test": "cell-based or functional assay"}, "[2]": {"molecular_target": "T1, Heat Shock Protein 90 (HSP90), endogenous, in human cell lines (human), P07900", "test": "cell-based or functional assay"}, "[3]": {"molecular_target": "T1, Heat Shock Protein 90 (HSP90), …", "test": "streptavidin affinity purification of biotinylated peptide from lysates of cancer cells (UMSCC1, H1975), immunoblot for HSP90"}}, "note": "Ends that are not written are not given here."}
{"binder": "YGRKKRRQRRRSVDNPHVC (not fully specified (N-terminus))", "note": "[Specific Peptide Biotin-[…]-SVDNPHVC]", "values": [{"measurement": "clonogenic survival, CHO cells (EGFR negative) (surviving fraction)", "setting": "[1]", "result": 0.98}, {"measurement": "clonogenic survival, A549 cells (WT-EGFR) (surviving fraction)", "setting": "[2]", "result": 0.57}, {"measurement": "clonogenic survival, H1975 cells (T790M-EGFR) (surviving fraction)", "setting": "[2]", "result": 0.4}, {"measurement": "clonogenic survival, H3255 cells (L858R-EGFR) (surviving fraction)", "setting": "[2]", "result": 0.71}, {"measurement": "clonogenic survival, HeLa cells (WT-EGFR) (surviving fraction)", "setting": "[2]", "result": 0.72}, {"measurement": "clonogenic survival, Het1A normal epithelial cells (WT-EGFR) (surviving fraction)", "setting": "[2]", "result": 1.02}, {"measurement": "clonogenic survival, MRC5 normal fibroblasts (WT-EGFR) (surviving fraction)", "setting": "[2]", "result": 1.01}, {"measurement": "clonogenic survival, UMSCC1 cells (WT-EGFR) (surviving fraction)", "setting": "[2]", "result": 0.76}, {"measurement": "clonogenic survival, UMSCC10B cells (WT-EGFR) (surviving fraction)", "setting": "[2]", "result": 0.63}, {"measurement": "clonogenic survival, UMSCC74B cells (WT-EGFR) (surviving fraction)", "setting": "[2]", "result": 0.74}, {"measurement": "fold increase in HSP90 protein binding", "setting": "[3]", "result": "5 to 10", "unit": "fold"}]}
{"binder": "YGRKKRRQRRRNHVPSDVC (not fully specified (N-terminus))", "note": "[Non Specific Peptide Biotin-[…]-NHVPSDVC]", "values": [{"measurement": "clonogenic survival, CHO cells (EGFR negative) (surviving fraction)", "setting": "[1]", "result": 1.12}, {"measurement": "clonogenic survival, A549 cells (WT-EGFR) (surviving fraction)", "setting": "[2]", "result": 0.81}, {"measurement": "clonogenic survival, H1975 cells (T790M-EGFR) (surviving fraction)", "setting": "[2]", "result": 0.77}, {"measurement": "clonogenic survival, H3255 cells (L858R-EGFR) (surviving fraction)", "setting": "[2]", "result": 1}, {"measurement": "clonogenic survival, HeLa cells (WT-EGFR) (surviving fraction)", "setting": "[2]", "result": 0.92}, {"measurement": "clonogenic survival, Het1A normal epithelial cells (WT-EGFR) (surviving fraction)", "setting": "[2]", "result": 0.91}, {"measurement": "clonogenic survival, MRC5 normal fibroblasts (WT-EGFR) (surviving fraction)", "setting": "[2]", "result": 1.04}, {"measurement": "clonogenic survival, UMSCC1 cells (WT-EGFR) (surviving fraction)", "setting": "[2]", "result": 1.02}, {"measurement": "clonogenic survival, UMSCC10B cells (WT-EGFR) (surviving fraction)", "setting": "[2]", "result": 0.96}, {"measurement": "clonogenic survival, UMSCC74B cells (WT-EGFR) (surviving fraction)", "setting": "[2]", "result": 0.89}]}
